We go through 2 molecules from US20110152202A1 (STC UNM, published 2011).

Experiment [1] deals with T1, human FcγRI (human, UniProt P12314 16-288, limits assumed).
T1 construct: Immobilized on the SPR chip
The experiment is described as follows: SPR, CRP as analyte on immobilized human FcγR. (In general: In SPR one partner is held on a chip, and binding of the other changes the refractive index at the surface.)

Experiment [2] has as its target human FcγRIII (human). The experiment is described as follows: SPR, CRP as analyte on immobilized human FcγR.
The target in experiment [3] is T2, mouse FcγRI on mouse peritoneal macrophages (from FcγRIIb-/- mice) (mouse, UniProt P26151 25-404).
T2 construct: whole, on cells; also called FcγRI on mouse macrophages
T2 sequence (looked up): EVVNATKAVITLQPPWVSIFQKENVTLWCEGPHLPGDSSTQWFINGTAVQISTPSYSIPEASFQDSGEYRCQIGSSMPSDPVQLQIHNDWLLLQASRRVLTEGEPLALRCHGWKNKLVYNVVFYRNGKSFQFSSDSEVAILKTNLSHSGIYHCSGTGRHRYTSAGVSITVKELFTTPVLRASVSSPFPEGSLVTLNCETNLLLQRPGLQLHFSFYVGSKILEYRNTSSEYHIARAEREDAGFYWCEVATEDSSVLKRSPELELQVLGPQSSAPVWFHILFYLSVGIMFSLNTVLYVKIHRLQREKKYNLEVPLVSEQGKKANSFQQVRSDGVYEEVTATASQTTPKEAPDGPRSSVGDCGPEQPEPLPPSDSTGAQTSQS
The experiment is described as follows: two-color flow cytometry of CRP bound to mouse peritoneal macrophages expressing FcγRI (from FcγRIIb-/- mice); panel title 'Binding to FcγRI'. From the text: A. Macrophages expressing FcγRI (from FcγRIIb^{-/-} mice). B. Macrophages expressing FcγRIIb (from FcR γ-chain^{-/-} mice).
On the technique in general: Flow cytometry measures light scatter and fluorescence of single cells or particles in a stream.

T1 sequence (P12314 16-288 limits assumed): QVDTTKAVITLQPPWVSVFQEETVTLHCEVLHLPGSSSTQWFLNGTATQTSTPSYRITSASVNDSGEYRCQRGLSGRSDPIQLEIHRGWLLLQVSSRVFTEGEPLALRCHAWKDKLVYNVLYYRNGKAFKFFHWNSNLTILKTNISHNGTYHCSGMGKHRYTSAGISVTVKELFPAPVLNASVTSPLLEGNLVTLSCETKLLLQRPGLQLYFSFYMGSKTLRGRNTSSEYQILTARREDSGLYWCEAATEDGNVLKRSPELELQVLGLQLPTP
Sequence of human FcγRIII (human) (O75015 17-200): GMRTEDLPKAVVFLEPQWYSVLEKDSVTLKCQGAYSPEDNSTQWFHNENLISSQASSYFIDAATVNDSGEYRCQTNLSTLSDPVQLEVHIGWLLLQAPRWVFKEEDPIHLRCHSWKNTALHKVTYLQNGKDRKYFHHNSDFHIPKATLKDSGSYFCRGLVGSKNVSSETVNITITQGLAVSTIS

B1: C-reactive protein (human CRP) (ligand)
chain: QTDMSRKAFVFPKESDTSYVSLKAPLTKPLKAFTVCLHFYTELSSTRGYSIFSYATKRQDNEILIFWSKDIGYSFTVGGSEILFEVPEVTVAPVHICTSWESASGIVEFWVDGKPRVRKSLKKGYTVGAEASIILGQEQDSFGGNFEGSQSLVGDIGNVNMWDFVLSPDEINTIYLGGPFSPNVLNWRALKYEVQGEVFTKPQLWP
notes: also called purified human CRP; native CRP
Usually Kd stands for the constant that tells how readily two partners part at equilibrium. Lower therefore signals tighter binding. Turning to B1, the Kd was 3.2 µM in experiment [1] and 4.1 µM in experiment [2]. For the same molecule, the binding result in experiment [3] was “binds”.

B2: Y175L mutant CRP (tyrosine 175 replaced by leucine) (ligand)
chain: QTDMSRKAFVFPKESDTSYVSLKAPLTKPLKAFTVCLHFYTELSSTRGYSIFSYATKRQDNEILIFWSKDIGYSFTVGGSEILFEVPEVTVAPVHICTSWESASGIVEFWVDGKPRVRKSLKKGYTVGAEASIILGQEQDSFGGNFEGSQSLVGDIGNVNMWDFVLSPDEINTILLGGPFSPNVLNWRALKYEVQGEVFTKPQLWP
notes: It has 206 amino acids; The protein is recombinant; also called Y175L CRP; recombinant Y175L mutant CRP
Consider B2, for which, in experiment [1], binding was characterised by a dissociation constant (Kd) of 3.5 µM. Also, the binding result in experiment [3] is given as “binds”.
